Assay results published in the supplement of paper PMC12338614.

B1: library; numbered along this chain (parent)
chain: MEVVDPQQLGMFTEGELMSVGMDTFIHRIDSTEVIYQPRRKRAKLIGKYLMGDLLGEGSYGKVKEVLDSETLCRRAVKILKKKKLRRIPNGEANVKKEIQLLRRLRHKNVIQLVDVLYNEEKQKMYMVMEYCVCGMQEMLDSVPEKRFPVCQAHGYFCQLIDGLEYLHSQGIVHKDIKPGNLLLTTGGTLKISDLGVAEALHPFAADDTCRTSQGSPAFQPPEIANGLDTFSGFKVDIWSAGVTLYNITTGLYPFEGDNIYKLFENIGKGSYAIPGDCGPPLSDLLKGMLEYEPAKRFSIRQIRQHSWFRKKHPPAEAPVPIPPSPDTKDRWRSMTVVPYLEDLHGADEDEDLFDIEDDIIYTQDFTVPGQVPEEEASHNGQRRGLPKAVCMNGTEAAQLSTKSRAEGRAPNPARKACSASSKIRRLSACKQQ

Variants of: B1
Assay: STK11 functional score (HeLa growth suppression), rescaled enrichment; synonymous median = 1, nonsense median = 0 (normalised score)
Settings: with HeLa; variant type: missense
How it was run: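 The functional score takes the post/pre-selection log ratio, corrects it to wild type, rescales it to synonymous and nonsense medians, and merges it over codons and replicate transfections, with error from bootstrapping. Counts came from tiled gDNA amplicons sequenced on NextSeq (~2 million reads per tile). The libraries were POPCode codon-randomised, codon-optimised STK11 integrated by Bxb1 at an AAVS1 landing pad in HeLa, three regions with three transfections each.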

STK11 functional score, by site and new letter:
I360: W 0.807; A 1.6; V 1.49; D 0.487; L 1.13; K 1.31; S 1.11; N 1.11; G 1.44; F 0.809; Y 1.52; R 0.694; M 0.866
H379: I 1.53; P 1.46; F 1.1; K 1.37; E 0.586; G 1.11; A 1.38; M 1.52; L 1.09; D 1.18
Q371: W 0.748; G 1.03; A 1.6; V 1.49; L 1.44; E 1.26; R 1.55; M 1.46; F 1.12; S 1.32; H 1.15; D 1.43; P 1.3; C 1.36; I 1.52; Y 1.04
E376: S 1.57; C 1.46; Y 1.56; P 1.31; G 1.18; K 1.41; T 1.55; H 0.914; V 1.07; F 1.35; M 0.943; I 1.54; L 1.42; Q 0.896; A 1.4; W 0.781; D 0.267; R 1.39
P369: D 1.61; H 0.727; T 1.53; K 1.42; S 1.51; F 1.26; I 1.21; C 1.31; V 1.21; G 1.56; A 1.43; Q 1.43; L 1.13; W 1.49; Y 1.41; R 1.44
D358: R 1.34; S 1.47; W 1.46; V 1.46; Q 1.49
S378: N 1.56; R 1.16; P 1.38; L 0.82; K 1.6; F 1.41; C 1.42; A 1.44; Y 1.35; D 1.5; W 0.76; M 1.11; Q 0.786; V 1.04; G 0.914; T 1.4; I 1.26
D365: N 0.613; C 1.51; A 0.704; H 1.34; I 1.47; M 1.59; G 1.55; S 1.51; W 1.32; R 1.61; P 1.56; E 0.893; V 1.14; F 0.997; Y 1.38; L 1.27
F366: D 1.6; W 1.58; C 1.09; V 1.42; G 1.55; I 1.08; A 0.753; P 1.62; M 1.48; E 1.6; R 1.52; Y 1.24; L 1.16; S 1.58
I361: T 1.58; G 0.895; M 1.09; F 0.984; Y 0.312; R 1.53; A 1.47; W 1.62; Q 0.616; S 1.46; D 1.5; H 1.21; E 1.52; V 1.6; K 0.624; L 1.31; N 1.27
P373: W 1.6; N 1.59; L 1.13; Q 1.55; A 1.08; I 1.31; E 1.51; M 1.56; T 1.11; D 1.58; R 0.782; C 1.32; F 1.26; V 0.868; G 1.53; H 1.49; S 1.44
T363: N 1.03; I 0.824; A 0.828; E 1.6; H 1.17; P 1.34; S 1.34; M 1.59; D 1.45; Q 1.52; L 1.17; G 1.58; Y 1.18; C 1.33; W 1.19; R 1.14; V 1.2; F 0.261
Q364: R 1.1; V 1.11; D 0.845; F 1.28; C 1.28; W 0.791; M 0.768; T 1.46; A 1.53; G 0.7; L 1.33; S 1.4; Y 1.53; E 0.253; H 0.685; I 1.26; P 1.4
D359: C 1.14; L 1.53; I 0.856; H 1.21; M 1.6; T 1.57; R 1.52; A 1.4; E 0.865; P 1.5; V 1.05; W 1.07; S 1.15; Y 1.13; G 1.36
T367: I 1.38; R 1.32; A 1.39; Y 1.54; L 1.46; C 1.4; E 1.5; P 1.41; V 1.58; W 1.4; F 1.36; K 0.53; S 1.51; G 1.6
A377: E -0.00596; W 0.843; L 1.04; I 1.55; S 1.24; M 1.51; Q 1.59; G 1.01; Y 1.49; P 1.4; R 1.6; V 1.31; T 1.59; H 0.0602; K 1.63
E374: H 1.06; L 1.2; I 1.46; K 1.47; D 0.971; V 0.836; Y 1.29; T 1.52; P 1.42; Q 0.822; W 1.55; G 1.12; A 0.915; C 1.51; R 1.61; F 1.33; S 1.46
E375: A 1.13; I 1.59; C 1.31; L 1.04; K 1.56; S 1.39; F 1.29; Y 1.52; N 1.47; P 1.53; R 1.46; W 1.54; V 1.27; D 1.58; H 1.24; G 1.49; T 0.94; Q 1.12
Y362: E 0.99; S 1.25; G 1.15; W 1.31; F 1.05; M 1.61; P 1.58; H 1.44; V 1.32; T 1.6; R 1.39; I 1.56; C 1.33; N 1.47; L 1.17; A 1.42
V372: W 1.09; G 1.09; Y 1.48; L 1.4; A 1.48; Q 1.49; E 1.23; D 1.53; K 1.6; R 1.42; H 1.61; S 1.44; T 1.5; F 1.12; N 1.54; M 0.74; P 1.48
V368: Y 1.54; L 1.35; S 1.1; T 1.56; F 0.859; I 1.53; E 1.42; A 1.36; G 1.38; Q 0.833; P 1.46; H 1.08; C 1.58; W 0.786; D 1.53; R 0.87
G370: D 1.24; P 1.59; F 1.5; S 1.52; L 1.42; V 0.706; E 1.43; A 1.21; W 1.41; R 1.16; I 1.6; Q 1.55
